Experimental data: article PMC3494747

Assays:
[1] = target: DLA-88*50801 heavy chain with a FLAG epitope tag at the carboxyl terminus, on BARC3 cells (canine); test: flow cytometry on cells
[2] = target: H2-D^b class I heavy chain, endogenous on RMA-S cells (mouse (endogenous in RMA-S)); test: peptide-induced MHC class I surface stabilization assay
[3] = target: DLA-88*50801 heavy chain with a FLAG epitope tag at the carboxyl terminus, on BARC3 cells (canine); test: dissociation of peptide-MHC complexes from the cell surface under brefeldin A

dissociation half-life (t1/2), first experiment [3] [h]	Molecule	also measured
–	murine β2-microglobulin (from UniProt P01887 21-119) (natural protein)	MFI of anti-murine β2M staining (K11-pulsed BARC3 cells) [1]: 281 MFI
–	NP396 peptide (LCMV-derived immunodominant peptide)	MFI of anti-H2-D^b staining of peptide-loaded RMA-S cells [2]: 217 MFI
6	RFLDKDGFIDK [K11 peptide]	–
1.9	KLFSGELTK [K9 peptide]	–
